B1: NETO1 (parent)
chain: KTSLLDQLTNTSGTVIGVTSCIVI

Variants of: B1
Experiment: protein stability index of a GFP-peptide fusion (GPS, HEK-293T) (PSI 1-6); higher = more stable
Details: c terminus: a fixed tail appended
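Note: lentivirally expressed fusions sorted by FACS into six bins by GFP to DsRed ratio, PSI derived from sequencing read proportions per bin multiplied by bin number.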

Variant	protein stability index
KTSLLDQLTNTSGTVIIVTSCIVI [G17I]	3.43
KTSLLDQLTNTSGTVIKVTSCIVI [G17K]	2.64
KTSLLDQLTNTSGTVIMVTSCIVI [G17M]	2.55
KTSLLDQLTNTSGTVIRVTSCIVI [G17R]	2.88
KTSLLDQLTNTSGTVILVTSCIVI [G17L]	3.83
KTSLLDQLTNTSGTVIHVTSCIVI [G17H]	3.23
KTSLLDQLTNTSGTVINVTSCIVI [G17N]	3.28
KTSLLDQLTNTSGTVITVTSCIVI [G17T]	3.32
KTSLLDQLTNTSGTVIQVTSCIVI [G17Q]	2.36
KTSLLDQLTNTSGTVICVTSCIVI [G17C]	3.42
KTSLLDQLTNTSGTVIVVTSCIVI [G17V]	2.91
KTSLLDQLTNTSGTVIAVTSCIVI [G17A]	2.71
KTSLLDQLTNTSGTVIPVTSCIVI [G17P]	3.45
KTSLLDQLTNTSGTVIDVTSCIVI [G17D]	3.37
KTSLLDQLTNTSGTVIWVTSCIVI [G17W]	2.9
KTSLLDQLTNTSGTVIEVTSCIVI [G17E]	2.69
KTSLLDQLTNTSGTVIYVTSCIVI [G17Y]	1.98
KTSLLDQLTNTSGTVISVTSCIVI [G17S]	3.25
KTSLLDQLTNTSGTVIFVTSCIVI [G17F]	2.72
KTSLLDQLRNTSGTVIGVTSCIVI [T9R]	2.21
KTSLLDQLINTSGTVIGVTSCIVI [T9I]	2.33
KTSLLDQLKNTSGTVIGVTSCIVI [T9K]	3.98
KTSLLDQLANTSGTVIGVTSCIVI [T9A]	2.1
KTSLLDQLFNTSGTVIGVTSCIVI [T9F]	2.37

Variant	protein stability index
KTSLLDQLLNTSGTVIGVTSCIVI [T9L]	3.09
KTSLLDQLGNTSGTVIGVTSCIVI [T9G]	2.29
KTSLLDQLHNTSGTVIGVTSCIVI [T9H]	2.95
KTSLLDQLPNTSGTVIGVTSCIVI [T9P]	2.6
KTSLLDQLDNTSGTVIGVTSCIVI [T9D]	2.58
KTSLLDQLSNTSGTVIGVTSCIVI [T9S]	2.72
KTSLLDQLMNTSGTVIGVTSCIVI [T9M]	2.4
KTSLLDQLVNTSGTVIGVTSCIVI [T9V]	2.63
KTSLLDQLYNTSGTVIGVTSCIVI [T9Y]	3.55
KTSLLDQLNNTSGTVIGVTSCIVI [T9N]	3.29
KTSLLDQLCNTSGTVIGVTSCIVI [T9C]	3.21
KTSLLDQLWNTSGTVIGVTSCIVI [T9W]	3.88
KTSLLDQLTNCSGTVIGVTSCIVI [T11C]	3.13
KTSLLDQLTNWSGTVIGVTSCIVI [T11W]	3.6
KTSLLDQLTNHSGTVIGVTSCIVI [T11H]	3.21
KTSLLDQLTNLSGTVIGVTSCIVI [T11L]	1.92
KTSLLDQLTNRSGTVIGVTSCIVI [T11R]	1.74
KTSLLDQLTNMSGTVIGVTSCIVI [T11M]	3.29
KTSLLDQLTNFSGTVIGVTSCIVI [T11F]	2.35
KTSLLDQLTNGSGTVIGVTSCIVI [T11G]	2.93
KTSLLDQLTNYSGTVIGVTSCIVI [T11Y]	2.33
KTSLLDQLTNISGTVIGVTSCIVI [T11I]	2.52
KTSLLDQLTNDSGTVIGVTSCIVI [T11D]	3.42
KTSLLDQLTNASGTVIGVTSCIVI [T11A]	3.75

Variant	protein stability index
KTSLLDQLTNNSGTVIGVTSCIVI [T11N]	2.29
KTSLLDQLTNQSGTVIGVTSCIVI [T11Q]	2.81
KTSLLDQLTNKSGTVIGVTSCIVI [T11K]	3.11
KTSLLDQLTNESGTVIGVTSCIVI [T11E]	5.03
KTSLLDQLTNPSGTVIGVTSCIVI [T11P]	3.64
KTSLLDQLTNSSGTVIGVTSCIVI [T11S]	2.15
KTSLLDQLTNVSGTVIGVTSCIVI [T11V]	2.65
KTSLLDQLTSTSGTVIGVTSCIVI [N10S]	2.76
KTSLLDQLTVTSGTVIGVTSCIVI [N10V]	3.24
KTSLLDQLTTTSGTVIGVTSCIVI [N10T]	2.41
KTSLLDQLTATSGTVIGVTSCIVI [N10A]	2.13
KTSLLDQLTDTSGTVIGVTSCIVI [N10D]	2.47
KTSLLDQLTRTSGTVIGVTSCIVI [N10R]	2.53
KTSLLDQLTQTSGTVIGVTSCIVI [N10Q]	2.33
KTSLLDQLTYTSGTVIGVTSCIVI [N10Y]	2.62
KTSLLDQLTKTSGTVIGVTSCIVI [N10K]	3.15
KTSLLDQLTHTSGTVIGVTSCIVI [N10H]	2.78
KTSLLDQLTETSGTVIGVTSCIVI [N10E]	3.35
KTSLLDQLTFTSGTVIGVTSCIVI [N10F]	2.3
KTSLLDQLTCTSGTVIGVTSCIVI [N10C]	2.71
KTSLLDQLTGTSGTVIGVTSCIVI [N10G]	3.19
KTSLLDQLTMTSGTVIGVTSCIVI [N10M]	3.51
KTSLLDQLTLTSGTVIGVTSCIVI [N10L]	3.8
KTSLLDQLTITSGTVIGVTSCIVI [N10I]	3.08

Variant	protein stability index
KTSLLDQLTPTSGTVIGVTSCIVI [N10P]	2.96
KTSLLDQLTWTSGTVIGVTSCIVI [N10W]	3.97
KTSLLDQLTNTSGTVQGVTSCIVI [I16Q]	2.94
KTSLLDQLTNTSGTVDGVTSCIVI [I16D]	2.52
KTSLLDQLTNTSGTVVGVTSCIVI [I16V]	2.48
KTSLLDQLTNTSGTVCGVTSCIVI [I16C]	3.8
KTSLLDQLTNTSGTVEGVTSCIVI [I16E]	2.85
KTSLLDQLTNTSGTVWGVTSCIVI [I16W]	2.03
KTSLLDQLTNTSGTVMGVTSCIVI [I16M]	2.62
KTSLLDQLTNTSGTVAGVTSCIVI [I16A]	2.44
KTSLLDQLTNTSGTVSGVTSCIVI [I16S]	3.79
KTSLLDQLTNTSGTVKGVTSCIVI [I16K]	3.1
KTSLLDQLTNTSGTVPGVTSCIVI [I16P]	2.76
KTSLLDQLTNTSGTVNGVTSCIVI [I16N]	2.27
KTSLLDQLTNTSGTVFGVTSCIVI [I16F]	3.68
KTSLLDQLTNTSGTVYGVTSCIVI [I16Y]	2.12
KTSLLDQLTNTSGTVTGVTSCIVI [I16T]	3.23
KTSLLDQLTNTSGTVRGVTSCIVI [I16R]	2.79
KTSLLDQLTNTSGTVLGVTSCIVI [I16L]	2.98
KTSLLDQLTNTSGTVHGVTSCIVI [I16H]	2.67
KTSLLDQLTNTSGTVIGETSCIVI [V18E]	2.2
KTSLLDQLTNTSGTVIGMTSCIVI [V18M]	3.92
KTSLLDQLTNTSGTVIGATSCIVI [V18A]	3.38
KTSLLDQLTNTSGTVIGTTSCIVI [V18T]	2.93

Variant	protein stability index
KTSLLDQLTNTSGTVIGFTSCIVI [V18F]	2.48
KTSLLDQLTNTSGTVIGCTSCIVI [V18C]	1.92
KTSLLDQLTNTSGTVIGQTSCIVI [V18Q]	2.66
KTSLLDQLTNTSGTVIGPTSCIVI [V18P]	2.84
KTSLLDQLTNTSGTVIGITSCIVI [V18I]	2.84
KTSLLDQLTNTSGTVIGGTSCIVI [V18G]	3.24
KTSLLDQLTNTSGTVIGWTSCIVI [V18W]	4.09
KTSLLDQLTNTSGTVIGNTSCIVI [V18N]	4.17
KTSLLDQLTNTSGTVIGSTSCIVI [V18S]	3.67
KTSLLDQLTNTSGTVIGHTSCIVI [V18H]	2.95
KTSLLDQLTNTSGTVIGYTSCIVI [V18Y]	3.56
KTSLLDQLTNTSGTVIGKTSCIVI [V18K]	3.8
KTSLLDQLTNTSGTVIGDTSCIVI [V18D]	2.55
KTSLLDQLTNTSGTVIGLTSCIVI [V18L]	3.12
KTSLLDQLTNTSGTVIGRTSCIVI [V18R]	2.23
KTSLLDQLTNTSGTVIGVASCIVI [T19A]	3.16
KTSLLDQLTNTSGTVIGVCSCIVI [T19C]	2.73
KTSLLDQLTNTSGTVIGVDSCIVI [T19D]	1.59
KTSLLDQLTNTSGTVIGVESCIVI [T19E]	2.68
KTSLLDQLTNTSGHVIGVTSCIVI [T14H]	2.62
KTSLLDQLTNTSGSVIGVTSCIVI [T14S]	1.94
KTSLLDQLTNTSGKVIGVTSCIVI [T14K]	3.88
KTSLLDQLTNTSGLVIGVTSCIVI [T14L]	2.47
KTSLLDQLTNTSGGVIGVTSCIVI [T14G]	2.11

Variant	protein stability index
KTSLLDQLTNTSGDVIGVTSCIVI [T14D]	2.58
KTSLLDQLTNTSGEVIGVTSCIVI [T14E]	3.18
KTSLLDQLTNTSGQVIGVTSCIVI [T14Q]	3.41
KTSLLDQLTNTSGMVIGVTSCIVI [T14M]	2.62
KTSLLDQLTNTSGYVIGVTSCIVI [T14Y]	2.64
KTSLLDQLTNTSGNVIGVTSCIVI [T14N]	2.98
KTSLLDQLTNTSGAVIGVTSCIVI [T14A]	2.03
KTSLLDQLTNTSGIVIGVTSCIVI [T14I]	2.98
KTSLLDQLTNTSGRVIGVTSCIVI [T14R]	3.41
KTSLLDQLTNTSGCVIGVTSCIVI [T14C]	2.61
KTSLLDQLTNTSGPVIGVTSCIVI [T14P]	2.69
KTSLLDQLTNTSGWVIGVTSCIVI [T14W]	2.37
KTSLLDQLTNTSGVVIGVTSCIVI [T14V]	3.29
KTSLLDQLTNTSGFVIGVTSCIVI [T14F]	2.82
KTSLLDQLTNTNGTVIGVTSCIVI [S12N]	3.41
KTSLLDQLTNTLGTVIGVTSCIVI [S12L]	2.43
KTSLLDQLTNTVGTVIGVTSCIVI [S12V]	3.35
KTSLLDQLTNTPGTVIGVTSCIVI [S12P]	2.51
KTSLLDQLTNTDGTVIGVTSCIVI [S12D]	3.07
KTSLLDQLTNTGGTVIGVTSCIVI [S12G]	3.53
KTSLLDQLTNTIGTVIGVTSCIVI [S12I]	2.89
KTSLLDQLTNTAGTVIGVTSCIVI [S12A]	2.96
KTSLLDQLTNTWGTVIGVTSCIVI [S12W]	1.75
KTSLLDQLTNTYGTVIGVTSCIVI [S12Y]	3.62

Variant	protein stability index
KTSLLDQLTNTFGTVIGVTSCIVI [S12F]	2.37
KTSLLDQLTNTKGTVIGVTSCIVI [S12K]	2.89
KTSLLDQLTNTQGTVIGVTSCIVI [S12Q]	2.56
KTSLLDQLTNTMGTVIGVTSCIVI [S12M]	1.87
KTSLLDQLTNTTGTVIGVTSCIVI [S12T]	2.78
KTSLLDQLTNTHGTVIGVTSCIVI [S12H]	2.69
KTSLLDQLTNTEGTVIGVTSCIVI [S12E]	2.87
KTSLLDQLTNTSGTEIGVTSCIVI [V15E]	2.04
KTSLLDQLTNTSGTRIGVTSCIVI [V15R]	2.45
KTSLLDQLTNTSGTYIGVTSCIVI [V15Y]	3.74
KTSLLDQLTNTSGTNIGVTSCIVI [V15N]	2.74
KTSLLDQLTNTSGTGIGVTSCIVI [V15G]	2.98
KTSLLDQLTNTSGTCIGVTSCIVI [V15C]	2.06
KTSLLDQLTNTSGTQIGVTSCIVI [V15Q]	2.33
KTSLLDQLTNTSGTTIGVTSCIVI [V15T]	3.07
KTSLLDQLTNTSGTMIGVTSCIVI [V15M]	2.87
KTSLLDQLTNTSGTWIGVTSCIVI [V15W]	2.59
KTSLLDQLTNTSGTIIGVTSCIVI [V15I]	3.08
KTSLLDQLTNTSGTAIGVTSCIVI [V15A]	2.65
KTSLLDQLTNTSGTLIGVTSCIVI [V15L]	4.43
KTSLLDQLTNTSGTSIGVTSCIVI [V15S]	2.96
KTSLLDQLTNTSGTFIGVTSCIVI [V15F]	2.44
KTSLLDQLTNTSGTKIGVTSCIVI [V15K]	3.5
KTSLLDQLTNTSGTHIGVTSCIVI [V15H]	1.99

Variant	protein stability index
KTSLLDQLTNTSGTPIGVTSCIVI [V15P]	3.31
KTSLLDQLTNTSGTDIGVTSCIVI [V15D]	3.39
KTSLLDQLTNTSWTVIGVTSCIVI [G13W]	3.1
KTSLLDQLTNTSRTVIGVTSCIVI [G13R]	3.34
KTSLLDQLTNTSETVIGVTSCIVI [G13E]	3.52
KTSLLDQLTNTSFTVIGVTSCIVI [G13F]	3.7
KTSLLDQLTNTSATVIGVTSCIVI [G13A]	2.12
KTSLLDQLTNTSKTVIGVTSCIVI [G13K]	2.9
KTSLLDQLTNTSITVIGVTSCIVI [G13I]	2.57
KTSLLDQLTNTSNTVIGVTSCIVI [G13N]	3.9
KTSLLDQLTNTSTTVIGVTSCIVI [G13T]	2.23
KTSLLDQLTNTSYTVIGVTSCIVI [G13Y]	3.2
KTSLLDQLTNTSDTVIGVTSCIVI [G13D]	2.26
KTSLLDQLTNTSCTVIGVTSCIVI [G13C]	2.5
KTSLLDQLTNTSLTVIGVTSCIVI [G13L]	2.42
KTSLLDQLTNTSVTVIGVTSCIVI [G13V]	2.66
KTSLLDQLTNTSHTVIGVTSCIVI [G13H]	2.65
KTSLLDQLTNTSPTVIGVTSCIVI [G13P]	2.94
KTSLLDQLTNTSSTVIGVTSCIVI [G13S]	3.19
KTSLLDQLTNTSMTVIGVTSCIVI [G13M]	3.17
